Measurements: US20080219947A1

Tests used:
[1] = target: p29.β2m^b.L^d single chain trimer (murine) (UniProt P01887); assay: flow cytometry on DLD-1 transfectants, 64-3-7 against 30-5-7 staining
[2] = target: MCMV.β2m^b.L^d single chain trimer (murine) (UniProt P01887); assay: as above
[3] = target: QL9.β2m^b.L^d single chain trimer (murine) (UniProt P01887); assay: as above
[4] = target: β2m^b.L^d single chain dimer (murine) (UniProt P01887); assay: as above
[5] = target: β2-microglobulin(L20).etK^b single chain dimer (murine) (UniProt P01887); assay: flow cytometry on LM1.8 transfectants
[6] = target: epitope-tagged K^b (K^bR48Q.R50P), unattached (murine) (UniProt P01901); assay: flow cytometry on LM1.8 transfectants
UniProt P01901, sequence (P01901 22-305, stated change not applied): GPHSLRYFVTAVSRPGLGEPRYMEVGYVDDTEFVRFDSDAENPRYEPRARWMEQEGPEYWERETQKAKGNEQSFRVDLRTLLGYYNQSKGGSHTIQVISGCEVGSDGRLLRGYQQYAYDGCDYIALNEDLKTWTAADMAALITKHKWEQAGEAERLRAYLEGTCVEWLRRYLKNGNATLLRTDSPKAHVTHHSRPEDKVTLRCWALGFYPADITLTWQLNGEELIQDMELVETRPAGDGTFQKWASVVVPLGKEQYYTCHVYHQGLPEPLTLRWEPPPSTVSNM

mAb 64-3-7 (antibody) was tested. Which percent of surface molecules detected in an open conformation [1] did it give?
Its percent of surface molecules detected in an open conformation is 8%.

And the percent of surface molecules detected in an open conformation [2]?
Its percent of surface molecules detected in an open conformation is 22%.

What about the percent of surface molecules detected in an open conformation [3] of the same substance?
Its percent of surface molecules detected in an open conformation is 22%.

What about the percent of surface molecules detected in an open conformation [4] of the same substance?
The percent of surface molecules detected in an open conformation was 39%.

What about the open conformers as a fraction of the sum of B8-24-3 and 64-3-7 fluorescence intensity [5] of the same substance?
The open conformers as a fraction of the sum of B8-24-3 and 64-3-7 fluorescence intensity was over 10%.

What about the open conformers as a fraction of the sum of B8-24-3 and 64-3-7 fluorescence intensity [6] of the same substance?
The open conformers as a fraction of the sum of B8-24-3 and 64-3-7 fluorescence intensity was over 10%.
